Test results reported in patent US11597752B2, “Peptides and combination of peptides and scaffolds thereof for use in immunotherapy against colorectal carcinoma (CRC) and other cancers” (priority 2015, dated 2023).

The substances below were run against HLA-A*02:01 (Homo sapiens, UniProt P04439, D140Y/D185E/D98H/E176V/E277Q/G131W/G231S/I119V/I121R/I166T/I218V/L300P/L318F/N151K/N90K/P208A/P217A/Q86G/Q94H/R138H/R169H/T345S) (assay: MHC binding assay (UV-ligand exchange, beta2m ELISA, peptide exchange yield)). Settings: binding to HLA-A*02:01, β2m ELISA.
Excerpt: Candidate peptides for T cell based therapies according to the present invention were further tested for their MHC binding capacity (affinity). The individual peptide-MHC complexes were produced by UV-ligand exchange, where a UV-sensitive peptide is cleaved upon UV-irradiation, and exchanged with the peptide of interest as analyzed. Only peptide candidates that can effectively bind and stabilize the peptide-receptive MHC molecules prevent dissociation of the MHC complexes. To determine the yield of the exchange reaction, an ELISA was performed based on the detection of the light chain (β2m) of stabilized MHC complexes. The assay was performed as generally described in Rodenko et al. (Rodenko et al., 2006).
96 well MAXISorp plates (NUNC) were coated over night with 2 ug/ml streptavidin in PBS at room temperature, washed 4× and blocked for 1 h at 37° C. in 2% BSA containing blocking buffer. Refolded HLA-A*02:01/MLA-001 monomers served as standards, covering the range of 15-500 ng/ml. Peptide-MHC monomers of the UV-exchange reaction were diluted 100 fold in blocking buffer. Samples were incubated for 1 h at 37° C., washed four times, incubated with 2 ug/ml HRP conjugated anti-β2m for 1 h at 37° C., washed again and detected with TMB solution that is stopped with […]. Absorption was measured at 450 nm. Candidate peptides that show a high exchange yield (preferably higher than 50%, most preferred higher than 75%) are generally preferred for a generation and production of antibodies or fragments thereof, and/or T cell receptors or fragments thereof, as they show sufficient avidity to the MHC molecules and prevent dissociation of the MHC complexes.
With “32 (KLNTETFGV; listed as Homo sapiens) [compound 32]” the “Peptide exchange (MHC class I binding score, peptide exchange yield)” value (shortened to “Peptide exchange”) was ““++” (≥20% = ++)”. For “109 (ALDGDQMEL; listed as Homo sapiens) [compound 109]”, the “Peptide exchange” value was ““++” (≥20% = ++)”. “139 (VLLNEILEQV; listed as Homo sapiens) [compound 139]” was tested, and the “Peptide exchange” value was ““+++” (≥50 = +++)”. “122 (SLMGMVLKL; listed as Homo sapiens) [compound 122]” was tested, and the “Peptide exchange” value was ““+++” (≥50 = +++)”. For “78 (ALDPELLLL; listed as Homo sapiens) [compound 78]”, the “Peptide exchange” value was ““++” (≥20% = ++)”. For “68 (SILQFVHMV; listed as Homo sapiens) [compound 68]”, the “Peptide exchange” value was ““+++” (≥50 = +++)”. With “145 (LLLEVVKQV; listed as Homo sapiens) [compound 145]” the “Peptide exchange” value was ““+++” (≥50 = +++)”. With “70 (MISELEVRL; listed as Homo sapiens) [compound 70]” the “Peptide exchange” value was ““+++” (≥50 = +++)”. “8 (ALMLQGVDLL; listed as Homo sapiens) [compound 8]” was tested, and the “Peptide exchange” value was ““+++” (≥50 = +++)”. “92 (WIDDTSAFV; listed as Homo sapiens) [compound 92]” was tested, and the “Peptide exchange” value was ““+++” (≥50 = +++)”. “159 (VLVDDDGIKVV; listed as Homo sapiens) [compound 159]” was tested, and the “Peptide exchange” value was ““++” (≥20% = ++)”. In the case of “29 (QMLDVAIRV; listed as Homo sapiens) [compound 29]”, the “Peptide exchange” value is reported as ““+++” (≥50 = +++)”. With “53 (FLLGSEIKL; listed as Homo sapiens) [compound 53]” the “Peptide exchange” value was ““+++” (≥50 = +++)”. For “140 (LLNEILEQV; listed as Homo sapiens) [compound 140]”, the “Peptide exchange” value was ““+++” (≥50 = +++)”. In the case of “167 (SVIDHIHLISV; listed as Homo sapiens) [compound 167]”, the “Peptide exchange” value is reported as ““+++” (≥50 = +++)”. “25 (SLADRLIGV; listed as Homo sapiens) [compound 25]” was tested, and the “Peptide exchange” value was ““++++” (≥75% = ++++)”. With “89 (SLIEYEFRV; listed as Homo sapiens) [compound 89]” the “Peptide exchange” value was ““+++” (≥50 = +++)”. In the case of “73 (YLFDIAVSM; listed as Homo sapiens) [compound 73]”, the “Peptide exchange” value is reported as ““+++” (≥50 = +++)”. For “17 (ALAAARVEL; listed as Homo sapiens) [compound 17]”, the “Peptide exchange” value was ““+++” (≥50 = +++)”. With “164 (KMLDEILLQL; listed as Homo sapiens) [compound 164]” the “Peptide exchange” value was ““++++” (≥75% = ++++)”. For “130 (GLGGSQLIDTHL; listed as Homo sapiens) [compound 130]”, the “Peptide exchange” value was ““++” (≥20% = ++)”. In the case of “85 (ILHDINSDGVL; listed as Homo sapiens) [compound 85]”, the “Peptide exchange” value is reported as ““++” (≥20% = ++)”. “181 (NLFDLGGQYLRV; listed as Homo sapiens) [compound 181]” was tested, and the “Peptide exchange” value was ““+++” (≥50 = +++)”. For “144 (LLNDRIWLA; listed as Homo sapiens) [compound 144]”, the “Peptide exchange” value was ““+++” (≥50 = +++)”. For “179 (RLLSPLSSA; listed as Homo sapiens) [compound 179]”, the “Peptide exchange” value was ““+++” (≥50 = +++)”. For “149 (YQFDKVGILTL; listed as Homo sapiens) [compound 149]”, the “Peptide exchange” value was ““+++” (≥50 = +++)”. With “170 (ALAGGITMV; listed as Homo sapiens) [compound 170]” the “Peptide exchange” value was ““+++” (≥50 = +++)”. For “81 (ALLSQQTHL; listed as Homo sapiens) [compound 81]”, the “Peptide exchange” value was ““+++” (≥50 = +++)”. With “51 (QVWEIQHTV; listed as Homo sapiens) [compound 51]” the “Peptide exchange” value was ““++” (≥20% = ++)”. “175 (TLLGGKEAQALGV; listed as Homo sapiens) [compound 175]” was tested, and the “Peptide exchange” value was ““+++” (≥50 = +++)”. “188 (FLVDGPRVQL; listed as Homo sapiens) [compound 188]” was tested, and the “Peptide exchange” value was ““+++” (≥50 = +++)”. In the case of “90 (GLLKPGLNVVL; listed as Homo sapiens) [compound 90]”, the “Peptide exchange” value is reported as ““+++” (≥50 = +++)”. In the case of “13 (FLLAEDTKV; listed as Homo sapiens) [compound 13]”, the “Peptide exchange” value is reported as ““+++” (≥50 = +++)”. For “117 (TLQPVDNSTISL; listed as Homo sapiens) [compound 117]”, the “Peptide exchange” value was ““++” (≥20% = ++)”. In the case of “176 (RTLDKVLEV; listed as Homo sapiens) [compound 176]”, the “Peptide exchange” value is reported as ““++” (≥20% = ++)”. In the case of “177 (ALLQGAIESV; listed as Homo sapiens) [compound 177]”, the “Peptide exchange” value is reported as ““+++” (≥50 = +++)”. For “121 (SLAPNIISQL; listed as Homo sapiens) [compound 121]”, the “Peptide exchange” value was ““+++” (≥50 = +++)”. “178 (YLFREPATI; listed as Homo sapiens) [compound 178]” was tested, and the “Peptide exchange” value was ““++” (≥20% = ++)”. “79 (SLAADQLLKL; listed as Homo sapiens) [compound 79]” was tested, and the “Peptide exchange” value was ““++” (≥20% = ++)”. With “75 (EMIENIQSV; listed as Homo sapiens) [compound 75]” the “Peptide exchange” value was ““++” (≥20% = ++)”. “72 (YLLDYPNNLL; listed as Homo sapiens) [compound 72]” was tested, and the “Peptide exchange” value was ““+++” (≥50 = +++)”. “97 (ALWWGVVTV; listed as Homo sapiens) [compound 97]” was tested, and the “Peptide exchange” value was ““++” (≥20% = ++)”. For “84 (SMVEDITGLRL; listed as Homo sapiens) [compound 84]”, the “Peptide exchange” value was ““+++” (≥50 = +++)”. With “148 (RLLENMTEVV; listed as Homo sapiens) [compound 148]” the “Peptide exchange” value was ““+++” (≥50 = +++)”. With “66 (GLDDGPDFL; listed as Homo sapiens) [compound 66]” the “Peptide exchange” value was ““++” (≥20% = ++)”. With “26 (GLASKENFSNVSL; listed as Homo sapiens) [compound 26]” the “Peptide exchange” value was ““++” (≥20% = ++)”. In the case of “44 (SLESKLTSV; listed as Homo sapiens) [compound 44]”, the “Peptide exchange” value is reported as ““+++” (≥50 = +++)”. In the case of “99 (KLLEVDLDTV; listed as Homo sapiens) [compound 99]”, the “Peptide exchange” value is reported as ““+++” (≥50 = +++)”. “43 (TLDAAQPRV; listed as Homo sapiens) [compound 43]” was tested, and the “Peptide exchange” value was ““++” (≥20% = ++)”. “143 (KLSDVWKEL; listed as Homo sapiens) [compound 143]” was tested, and the “Peptide exchange” value was ““+++” (≥50 = +++)”. In the case of “36 (GLLESPSIFNFTA; listed as Homo sapiens) [compound 36]”, the “Peptide exchange” value is reported as ““+++” (≥50 = +++)”. “126 (TLAKYLMEL; listed as Homo sapiens) [compound 126]” was tested, and the “Peptide exchange” value was ““+++” (≥50 = +++)”. For “191 (QLFSEIHNL; listed as Homo sapiens) [compound 191]”, the “Peptide exchange” value was ““++++” (≥75% = ++++)”. In the case of “31 (LLYGKYVSV; listed as Homo sapiens) [compound 31]”, the “Peptide exchange” value is reported as ““+++” (≥50 = +++)”. In the case of “101 (GLSEGHTFQV; listed as Homo sapiens) [compound 101]”, the “Peptide exchange” value is reported as ““+++” (≥50 = +++)”. “3 (RLIPDTLYSV; listed as Homo sapiens) [compound 3]” was tested, and the “Peptide exchange” value was ““++++” (≥75% = ++++)”.
